Kd data for 1 molecule are collected here from paper PMC5551644 (Biochemistry, 2016).

What all share (experiment): SPR
Test [1] has as its target T1, TGF-β type II receptor extracellular domain (UniProt P37173 23-166).
For test [2], the target named is T1, TGF-β type II receptor extracellular …. The source holds these as a separate data set.
For test [3] the target is unchanged. The source holds these as a separate data set.

Where two headings read alike, the source gives them in different places.

T1 sequence (P37173 23-166): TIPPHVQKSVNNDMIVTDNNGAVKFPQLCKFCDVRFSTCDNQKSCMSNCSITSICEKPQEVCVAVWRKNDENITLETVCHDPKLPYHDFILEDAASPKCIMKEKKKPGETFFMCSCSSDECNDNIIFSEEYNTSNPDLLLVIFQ

B1: Transforming growth factor β2 (TGF-β2), recombinant human (ligand, UniProt P61812 303-414, looked up)
chain: ALDAAYCFRNVQDNCCLRPLYIDFKRDLGWKWIHEPKGYNANFCAGACPYLWSSDTQHSRVLSLYNTINPEASASPCCVSQDLEPLTILYYIGKTPKIEQLSNMIVKSCKCS
modifications: biotinylated for SPR (EZ-Link Amine-PEG3-biotin with EDC/Sulfo-NHS; for the experiments of Table S1 sulfo-NHS-LC-LC-Biotin)
As for B1, the Kd in test [1] came out at 2.9 ± 1.1 µM; in test [2] it was 9.4 ± 2.2 µM; in test [3] it was 4.6 ± 0.7 µM.

One may read the Kd as the equilibrium constant for the complex coming apart. A high value points to lower affinity.
